Laboratory results from patent US20260263364A1, “OSTEOCLAST-DERIVED MICROVESICLES AND METHODS OF PROMOTING BONE REGENERATION” (The United States Government as represented by the …, priority 2023, published 2026).

Tested on: osteoclastic cells
Assay: Release of soluble EfnB2 into CM by osteoclastic cells (Western blots)
Assay type: cell-based
Excerpt: Regarding the EfnB2, EfnB2 on the plasma membrane of osteoclasts binds the EphB4 receptor on the cell surface of nearby osteoprogenitors to trigger the EfnB2-EphB4 bidirectional signaling, which on the one hand suppresses osteoclastic resorption through activation of the reverse signaling of EfnB2 in osteoclasts and on the other hand upregulates the EphB4 forward signaling in osteoblasts to stimulate osteoblast maturation and activity. However, this bidirectional signaling mechanism requires direct cell-cell contact between osteoclasts and osteoprogenitors. Given the fact that very few osteoblasts or progenitors are present at the remodeling site that could make direct contact with the resorbing osteoclast, this cell-cell contact-dependent bidirectional mechanism is unlikely a major mechanism for the coupled bone formation under normal situations. It also could not be responsible for the soluble osteoanabolic activity of osteoclasts. […] Treatment with EfnA4-fc or PTH increased its releases each by ~75% and the large majority of the released EfnB2 was associated with the MV fraction. As an initial test of the possibility that EfnB2 is a candidate for an osteoanabolic component, it was tested whether the osteogenic activity of CM or that of MV could be blocked by pretreatment with anti-EfnB2 antibody. […]

B1: PTH: used to increase bone turnover / stimulate bone remodeling (protein, UniProt P01270 32-115, looked up)
Parathyroid hormone: SVSEIQLMHNLGKHLNSMERVEWLRKKLQDVHNFVALGAPLAPRDAGSQRPRKKEDNVLVESHEKSLGEADKADVNVLTKAKSQ
modifications: Parathyroid hormone
notes: used to increase bone turnover / stimulate bone remodeling
Q: Which “increase of release of soluble EfnB2” value does the source give for B1 here?
A: ~ 75%
